# Source: IntAct's records for PubMed 24165923
# Target: rspo1_human RSPO1 (UniProt Q2MKA7)
# Sequence (Q2MKA7 whole entry): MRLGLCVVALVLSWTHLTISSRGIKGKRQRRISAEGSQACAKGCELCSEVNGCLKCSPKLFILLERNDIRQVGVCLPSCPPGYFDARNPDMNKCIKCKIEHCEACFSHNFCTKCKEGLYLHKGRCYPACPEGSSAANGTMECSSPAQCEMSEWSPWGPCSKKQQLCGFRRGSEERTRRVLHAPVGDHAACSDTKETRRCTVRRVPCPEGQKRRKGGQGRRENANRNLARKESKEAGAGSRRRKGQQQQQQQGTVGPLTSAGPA
substance,measurement,value
"E3 ubiquitin-protein ligase ZNRF3 (Homo sapiens), Q9ULT6 P103A",effect of a mutation on the interaction,disrupting interaction
